Earlier results on 1 substance are cited in paper PMC8439649.

A word on the Kd: it is the concentration at which binding is half-saturated.

The series has as its target mTORC1 (Homo sapiens) (UniProt P42345).

DEPTOR PDZ (from UniProt Q8TB45): the Kd is 7 µM.
